# Experimental data reported in patent CN113637078A (WEST CHINA HOSPITAL SICHUAN UNIV, dated 2021).
# T1: p38γ with 2×Strep tag (pET28a-p38γ-2×Strep) (Homo sapiens (Human), UniProt P53778 1-367)
# T1 construct: Recombinant, from E. coli BL21(DE3); The tag is placed at the C-terminus only on the strength of the vector name; not shown: 2×Strep tag
# T1 sequence: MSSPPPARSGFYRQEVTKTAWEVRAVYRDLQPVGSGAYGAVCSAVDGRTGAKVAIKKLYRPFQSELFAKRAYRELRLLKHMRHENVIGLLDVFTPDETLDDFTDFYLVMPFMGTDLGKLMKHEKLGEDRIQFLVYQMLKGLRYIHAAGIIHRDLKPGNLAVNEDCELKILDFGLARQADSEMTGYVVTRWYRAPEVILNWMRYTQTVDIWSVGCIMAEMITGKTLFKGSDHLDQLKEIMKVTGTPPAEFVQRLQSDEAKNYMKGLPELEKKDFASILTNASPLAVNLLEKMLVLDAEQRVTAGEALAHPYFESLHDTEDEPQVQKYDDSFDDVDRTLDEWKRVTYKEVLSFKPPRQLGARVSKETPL
# T2: 蛋白激酶p38δ with 2×Strep tag (pET28a-p38δ-2×Strep) (Homo sapiens (Human), UniProt O15264 1-365)
# T2 construct: Recombinant, from E. coli BL21(DE3); The tag is placed at the C-terminus only on the strength of the vector name pET28a-p38γ/p38δ-2×Strep; Linkers and other vector residues are not described; not shown: 2×Strep tag
# T2 sequence: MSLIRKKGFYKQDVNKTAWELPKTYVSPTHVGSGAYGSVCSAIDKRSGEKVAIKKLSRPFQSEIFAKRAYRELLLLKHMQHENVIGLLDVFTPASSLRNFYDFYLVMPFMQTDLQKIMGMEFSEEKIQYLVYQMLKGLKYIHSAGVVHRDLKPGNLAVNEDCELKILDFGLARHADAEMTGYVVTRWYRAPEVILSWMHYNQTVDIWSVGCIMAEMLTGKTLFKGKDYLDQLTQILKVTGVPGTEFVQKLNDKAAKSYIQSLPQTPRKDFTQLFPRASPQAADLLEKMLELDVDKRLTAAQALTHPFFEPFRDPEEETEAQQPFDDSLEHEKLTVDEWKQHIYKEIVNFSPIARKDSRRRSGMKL
# B1: 纳米抗体Nb13-6 (nanobody against protein kinase p38δ), C-terminal FLAG tag (VHH)
# VHH: QVQLVESGGALVQPGGSLRLSCAASGLEPSMFSLRWYRQAPGKEREWVCGISKWFDDMSYEDSVKGRFTCSRDDARNTVYLQLNSLKPEDTAVYYCASLRPTFLPGLMRTRYWGQGTQVTVSS
# notes: Expressed from pET22b in E. coli BL21(DE3); Used mostly as periplasmic extract; Other vector-derived residues are not described; also called 针对蛋白激酶p38δ的纳米抗体; not shown: FLAG tag fused at the C-terminus
# Tests used:
# [1] = biological target: p38α (UniProt Q16539 1-360, limits assumed); experiment: ELISA, antigen coated on plate, periplasmic extract of the nanobody, anti-FLAG detection, OD450
# Sequence of p38α (Q16539 whole entry): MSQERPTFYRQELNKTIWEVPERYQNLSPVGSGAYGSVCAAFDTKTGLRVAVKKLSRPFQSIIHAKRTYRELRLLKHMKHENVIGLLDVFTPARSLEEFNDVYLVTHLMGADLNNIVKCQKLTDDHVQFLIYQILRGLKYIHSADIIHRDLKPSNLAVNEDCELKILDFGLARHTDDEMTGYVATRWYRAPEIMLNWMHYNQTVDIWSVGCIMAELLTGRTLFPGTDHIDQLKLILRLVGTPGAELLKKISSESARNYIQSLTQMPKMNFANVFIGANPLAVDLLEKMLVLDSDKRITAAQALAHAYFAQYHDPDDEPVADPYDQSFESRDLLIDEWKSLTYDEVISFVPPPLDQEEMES
# [2] = biological target: p38β (UniProt Q15759 1-364, limits assumed); experiment: as above
# Sequence of p38β (Q15759 whole entry): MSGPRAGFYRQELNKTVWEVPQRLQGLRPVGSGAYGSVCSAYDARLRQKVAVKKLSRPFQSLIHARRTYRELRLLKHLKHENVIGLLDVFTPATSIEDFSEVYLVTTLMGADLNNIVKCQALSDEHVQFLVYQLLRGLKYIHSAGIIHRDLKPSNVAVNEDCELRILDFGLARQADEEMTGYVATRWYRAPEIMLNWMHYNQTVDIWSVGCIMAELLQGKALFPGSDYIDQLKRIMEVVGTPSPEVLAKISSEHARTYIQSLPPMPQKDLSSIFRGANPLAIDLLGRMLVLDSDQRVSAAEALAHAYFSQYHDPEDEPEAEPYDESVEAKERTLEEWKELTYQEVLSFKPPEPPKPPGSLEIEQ
# [3] = biological target: T1, p38γ with 2×Strep tag …; experiment: as above
# [4] = biological target: T2, 蛋白激酶p38δ with 2×Strep tag …; experiment: indirect ELISA, p38δ coated, nanobody at 0-6.4 μM, anti-FLAG detection, 4-parameter fit
binder,measurement,setting,value
B1,binding result,[1],no binding
same,binding result,[2],no binding
same,binding result,[3],no binding
same,Kd,[4],499 nM
